Values belong to the compound of their own block, whether it stands above or below them.
Legend:
[1] = Delivery and clearance of sodium fluorescein from the suprachoroidal space in live rabbits (Example 5); assay type: in vivo, rabbit; settings: SCS injection
Experimental: The delivery of a fluorescent molecule (sodium fluorescein) to the suprachoroidal space was evaluated using rabbits according to approved live animal experimental protocols. A one dimensional scan of the eye (through line of sight) was taken within the first five minutes after injection to determine the dispersion of the fluorescent molecule in the eye (FIG. 14). The y-axis indicates the fluorescent intensity (i.e., the concentration) and the x-axis represents the position in the eye from front (160) to back (0). Thus, the results illustrate that within the first 5 minutes after injection, the fluorescein had already flowed through the suprachoroidal space to the back of the eye. with some remaining at the initial insertion site.
Similar scans were taken to evaluate the rate of clearance of fluorescein from the suprachoroidal space over time (FIG. 15). The fluorescent intensity was measured in two regions of the eye (the suprachoroidal space and mid-vitreous region) over time. The results illustrate that the bulk of the material injected remains in the suprachoroidal space without passing into the mid-vitreous region and that the material substantially cleared the suprachoroidal space within 24 hours.

[2] = Phase 1 safety and tolerability of suprachoroidal bevacizumab in patients with CNV secondary to wet AMD (Example 14); assay type: in vivo, human
Experimental: (§1) The safety and tolerabilty of a single microneedle injection of bevacizumab into the suprachoroidal space (SCS) using a micronocedle was evaluated. Four adult patients with choroidal neovascularization (CNV), secondary to wet age-related macular degeneration (AMD), were enrolled in a phase 1, single-center, open-label study. Each subject provided informed consent and was screened for eligibility. […] Treated patients remained in the clinic for 4 hours for observation and then retumed multiple times for follow-up during a 2 month period. Major safety examinations included intraocular pressure (IOP), angiograms, biomicroscopy, indirect ophthalmoscopy, fundus photography, optical coherence tomography (OCT), visual acuity (VA) (Table 8), and assessment of pain.

[3] = Visual acuity of patients after suprachoroidal bevacizumab (Example 14); assay type: in vivo, human
Experimental: as §1

time to substantial clearance from the suprachoroidal space ([1]; fluorescent intensity): ≤ 24 h | time for fluorescein to flow through the suprachoroidal space to the back of the eye ([1]; one dimensional fluorescence scan): ≤ 5 min
Compound: O=C1OC2(c3ccc(O)cc3Oc3cc(O)ccc32)c2ccccc21 [fluorescein, sodium fluorescein]

Compound: bevacizumab: humanized monoclonal antibody, angiogenesis inhibitor (Avastin)
effect on IOP, OCT or VA ([2]; 100 μL bevacizumab SCS, any subject): No negative effect | adverse events related to bevacizumab or the method of administration ([2]; 100 μL bevacizumab SCS, ophthalmic examinations): no unexpected or serious adverse events | level of pain recorded for the administration ([2]; 100 μL bevacizumab SCS, topical anesthesia, four patients): moderate | intraretinal fluid (OCT) ([2]; patient number 3, 56 days after injection vs before injection): Decrease | rescue therapy or reinjection ([2]; two months following treatment): No patients required rescue therapy or reinjection | Visual Acuity ([3]; Patient 1, 28 day post dose): 20/40 | Visual Acuity ([3]; Patient 1, 56 day post dose): 20/40 | Visual Acuity ([3]; Patient 1, Pre-does): 20/80 | Visual Acuity ([3]; Patient 1, Screening): 20/40 | Visual Acuity ([3]; Patient 2, 28 day post dose): 20/20 | Visual Acuity ([3]; Patient 2, 56 day post dose): 20/20 | Visual Acuity ([3]; Patient 2, Pre-does): 20/40 | Visual Acuity ([3]; Patient 2, Screening): 20/40 | Visual Acuity ([3]; Patient 3, 28 day post dose): 20/250 | Visual Acuity ([3]; Patient 3, 56 day post dose): 20/250 | Visual Acuity ([3]; Patient 3, Pre-does): 20/320 | Visual Acuity ([3]; Patient 3, Screening): 20/320 | Visual Acuity ([3]; Patient 4, 28 day post dose): 20/400 | Visual Acuity ([3]; Patient 4, 56 day post dose): 20/400 | Visual Acuity ([3]; Patient 4, Pre-does): 20/400 | Visual Acuity ([3]; Patient 4, Screening): 20/400
